This is an account of results in US20210147523A1 (TEIJIN PHARMA, published 2021).

Assay [1] concerns the target T1, human SPNS2 (human, UniProt Q8IVW8 1-549).
T1 construct: S1P transporter; in Cell ELISA and S1P assays on Flp-in 293 cells that also express human SphK1; also called Spinster homolog 2; native type
T1 sequence: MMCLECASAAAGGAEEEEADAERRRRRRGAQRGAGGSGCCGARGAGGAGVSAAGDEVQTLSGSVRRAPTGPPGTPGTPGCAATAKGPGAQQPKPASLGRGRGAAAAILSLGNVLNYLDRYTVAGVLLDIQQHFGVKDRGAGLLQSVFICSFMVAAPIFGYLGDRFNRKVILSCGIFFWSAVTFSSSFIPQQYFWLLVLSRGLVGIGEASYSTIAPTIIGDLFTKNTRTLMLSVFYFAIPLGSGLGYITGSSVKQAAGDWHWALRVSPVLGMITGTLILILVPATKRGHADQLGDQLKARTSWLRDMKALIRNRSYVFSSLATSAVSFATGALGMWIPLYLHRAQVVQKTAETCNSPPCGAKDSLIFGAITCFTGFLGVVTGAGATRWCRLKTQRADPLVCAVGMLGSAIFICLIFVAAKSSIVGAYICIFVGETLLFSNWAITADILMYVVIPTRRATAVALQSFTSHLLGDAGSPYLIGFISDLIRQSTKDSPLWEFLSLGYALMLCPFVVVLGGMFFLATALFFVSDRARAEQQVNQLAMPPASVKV
Nature of the assay: Cell ELISA. As for the experimental part: (§1) Human and mouse SPNS2 and human SphK1 double stable expression Flp-in 293 cells were added to a poly D lysine coat 96-well plate (Corning, 356461) in a density of 1×10⁵ cells/well and was cultivated overnight, and then the culture medium was removed. An anti-SPNS2 antibody solution was adjusted into 20 μg/mL using 0.2% FBS/3% BSA/PBS, and 0.2% FBS/3% BSA/PBS (60 μL) was added to the antibody diluted solution (20 μL) to prepare seven-step diluted solutions by four fold serial dilution. Each diluted solution of the anti-SPNS2 antibody was added in a volume of 30 μL/well, and reacted for about one hour at room temperature. The antibody solution was removed, and the residue was washed with PBS containing 0.05% Tween 20 (PBS-T) two times, and fixed for about ten minutes at room temperature using 10% buffered formalin (Mildform (Trade mark) 10NM, Wako). After washing with PBS-T one time, a 5000-fold diluted solution of anti-rat IgG antibody HRP conjugate (Southern Biotech, 3030-05) in 0.2% FBS/3% BSA/PBS was added to each well (30 μL), and reacted for about one hour at room temperature. After washing with PBS-T four times, a substrate (TMB; 3, 3′, 5, 5′-tetramethylbenzidin) was added to each well (100 μL) to initiate the reaction. After 20 minutes, 2N sulfuric acid was added to each well (100 μL), and absorbance at 450 nm and 550 nm was measured. […] Each antibody bound to human SPNS2 and mouse SPNS2.

Assay [2] concerns the target T2, mouse SPNS2 (mouse, UniProt Q91VM4 1-549).
T2 construct: on Flp-in 293 cells that also express human SphK1
T2 sequence: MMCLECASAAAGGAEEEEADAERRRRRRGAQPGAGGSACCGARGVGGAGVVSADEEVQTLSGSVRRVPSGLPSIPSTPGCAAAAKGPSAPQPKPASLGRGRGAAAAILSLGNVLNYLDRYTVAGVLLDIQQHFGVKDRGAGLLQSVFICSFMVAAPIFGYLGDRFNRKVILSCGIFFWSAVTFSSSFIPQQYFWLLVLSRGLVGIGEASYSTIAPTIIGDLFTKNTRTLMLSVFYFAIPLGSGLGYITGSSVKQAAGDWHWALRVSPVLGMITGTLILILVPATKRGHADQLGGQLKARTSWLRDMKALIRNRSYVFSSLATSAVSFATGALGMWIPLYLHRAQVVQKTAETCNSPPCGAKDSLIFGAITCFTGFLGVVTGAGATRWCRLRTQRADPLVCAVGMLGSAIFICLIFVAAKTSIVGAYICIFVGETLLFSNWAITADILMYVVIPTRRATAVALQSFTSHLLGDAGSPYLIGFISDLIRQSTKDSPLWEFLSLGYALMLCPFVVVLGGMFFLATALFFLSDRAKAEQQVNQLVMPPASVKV
Nature of the assay: Cell ELISA. As for the experimental part:
as §1
On the technique in general: ELISA stands for enzyme-linked immunosorbent assay.

In assay [3] the target is T3, Mutant 4 of human SPNS2 (FLAG tag inserted in extracellular loop 11) (human, UniProt Q8IVW8 1-549).
T3 construct: on HEK293 cells; also called extracellular loop 11 mutant
T3 sequence: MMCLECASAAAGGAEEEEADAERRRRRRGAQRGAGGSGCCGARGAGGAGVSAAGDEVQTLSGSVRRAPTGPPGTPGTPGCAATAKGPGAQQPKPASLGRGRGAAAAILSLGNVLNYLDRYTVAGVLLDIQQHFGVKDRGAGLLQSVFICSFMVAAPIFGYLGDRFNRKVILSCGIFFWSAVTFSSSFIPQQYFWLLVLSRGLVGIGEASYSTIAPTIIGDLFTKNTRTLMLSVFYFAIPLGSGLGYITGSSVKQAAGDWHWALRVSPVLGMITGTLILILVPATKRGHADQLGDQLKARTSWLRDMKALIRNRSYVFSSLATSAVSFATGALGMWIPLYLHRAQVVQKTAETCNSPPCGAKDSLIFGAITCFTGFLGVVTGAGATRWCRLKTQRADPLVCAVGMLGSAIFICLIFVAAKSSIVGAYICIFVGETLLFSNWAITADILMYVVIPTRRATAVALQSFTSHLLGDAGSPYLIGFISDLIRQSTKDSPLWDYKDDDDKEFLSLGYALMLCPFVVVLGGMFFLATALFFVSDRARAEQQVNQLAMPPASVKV
Nature of the assay: flow cytometry, FLAG-insertion mutant. On the procedure:
After the lipofection, the HEK 293 cells cultivated overnight were recovered from the culture dishes, and reacted with a cell staining buffer (BioLegend, 420201) containing an anti-FLAG antibody (Sigma-Aldrich, F1804) and an anti-SPNS2 antibody each in a volume of 20 μg/mL for 30 minutes at room temperature. After washing with a cell staining buffer one time, the anti-FLAG antibody was detected with an anti-mouse IgG-Alexa 647 conjugate antibody, and the anti-SPNS2 antibody was detected with an anti-rat IgG-FITC conjugate antibody with flow cytometer BD LSR Fortessa (Becton Dickinson). The binding ability to each mutant was evaluated with the ratio of the FITC-positive cell rate to the Alexa 647-positive cell rate. In Table 7, symbol (+) indicates a ratio of less than 0.1, symbol (±) indicates a ratio of 0.1 or more and less than 0.5, and symbol (−) indicate a ratio of 0.5 or more.
(Flow cytometry measures light scatter and fluorescence of single cells or particles in a stream.)

The target of assay [4] is T1, human SPNS2. The assay can be described thus: cell-based or functional assay.
Assay [5] deals with T2, mouse SPNS2. Nature of the assay: cell-based or functional assay.

Positions count from the first letter of the chain named.

B1: 83-1110B (antibody, IgG2b, V domains shown)
VH: EVQLQQSGPEFVRPGTSVKFSCKVSGGSITSYFIHFVKQRPGQGLEWIGKIDPEDDSTKYGEKFKNKATLTADTSSNTAFLKLSSLTSEDTAIYFCTTLTGLDYWGQGVMVTVSS
VL: DIQMTQSPPVLSAAVGDRVTLSCKASRSLNKNLDWYQQKHGETPKLLIYHTHNLQTGIPSRFSGSGSDTDYTLTISSLQTEDVATYYCYQYHSGWTFGGGTRLELRR
With B1, the Emax with human SPNS2 [1] turned out to be 1.6 absorbance; with mouse SPNS2 [2], 1.59 absorbance. The pEC50 in the assay with human SPNS2 [1] was 8.32 pEC50 (M); with mouse SPNS2 [2] it was 8.17 pEC50 (M). The “FITC+/Alexa 647+ cell rate ratio” value in assay [3] was ≥ 0.5 ratio. Besides, the “pIC50, S1P transport inhibition (S1PR3 Ca2+ FLIPR bioassay)” value (“pIC50, S1P transport inhibition” below) in the assay with human SPNS2 [4] was 7.6 pIC50 (M); with mouse SPNS2 [5] it was 8 pIC50 (M).

B2: 84-1111F (antibody, IgG2b, V domains shown)
VH: EVQVVESGGGLVQPGRSMKLSCAALGFTFRDYYMAWVRQTPTKGLEWVAAISTGGGNTYYRDSVKGRFTISRDNAKSTLYLKMDSLRSDDTATYYCARNPYGNYFDYWGQGVMVTVSS
VL: QFVLSQPNSVSTNLGSTVKLSCKRSTGNIGSNYVHWYQRHEGRSPTTMIYRDDKRPNGVPDRFSGSIDRSSNSALLTINNVQTEDEADYFCQSYSGGMYLFGGGTTLTVL
Take B2: the Emax with human SPNS2 [1] stood at 1.68 absorbance; with mouse SPNS2 [2], 1.55 absorbance. Moreover, the pEC50 was 8.75 pEC50 (M) in the assay with human SPNS2 [1] and 8.65 pEC50 (M) with mouse SPNS2 [2]. In addition, the “FITC+/Alexa 647+ cell rate ratio” value in assay [3] was ≥ 0.5 ratio. The “pIC50, S1P transport inhibition” value in the assay with human SPNS2 [4] is 7.7 pIC50 (M); with mouse SPNS2 [5], 8.3 pIC50 (M).

B3: 65-0810G (antibody, IgG2b, V domains shown)
VH: EVHLVESGGGLVQPGRSMKLSCTASGFTFNNYYMAWVRQAPTKGLEWVASISTGGGYTYYRDSVKGRFTISRDNTGNTLYLQMDSLRSEDTATYYCARCWELPYWGQGVMVTVSS
VL: QFVLTQPNSVSTNLGSTVKLSCRRSSGNIGNNYVNWYRQHEGRSPTTMIYRDDTRPDGVPNRFSGSIDRSSNSALLTINNVRPEDEAYYFCQSYSGSIYIFGGGTKLTVL
Regarding B3, the Emax amounted to 1.7 absorbance with human SPNS2 [1] and 1.54 absorbance with mouse SPNS2 [2]. In addition, the pEC50 with human SPNS2 [1] was 8.36 pEC50 (M); with mouse SPNS2 [2], 8.15 pEC50 (M). Further, the “FITC+/Alexa 647+ cell rate ratio” value in assay [3] was ≥ 0.5 ratio. The “pIC50, S1P transport inhibition” value was 7.2 pIC50 (M) with human SPNS2 [4] and 7.6 pIC50 (M) in the assay with mouse SPNS2 [5].

B4: 80-1104A (antibody, IgG2b, V domains shown)
VH: EVQLVETGGGLVQPGSSLKLSCSTSGFTFSETWMSWVRQAPGKGLEWVGLIKDKNSNYEANYAESVKGRFTISRDDSKRRVYLQMYTLRDQDTATYYCTSHEDFYYYSSYYFDYWGQGVMVTVSS
VL: DIVLTQSPATLSVTPGESVSLSCRASQGISTSIHWYQQKSNESPRLLIKYASQSMSGIPSRFSGSGSGTDFTLRINRVESEDFSVYYCQQSYNLPLTFGSGTKLEIKR
On to B4, for which the Emax was determined as 1.83 absorbance with human SPNS2 [1] and 1.61 absorbance with mouse SPNS2 [2]. The pEC50 with human SPNS2 [1] is 8.47 pEC50 (M); with mouse SPNS2 [2], 8.32 pEC50 (M). In addition, the “FITC+/Alexa 647+ cell rate ratio” value in assay [3] is ≥ 0.5 ratio. The “pIC50, S1P transport inhibition” value with human SPNS2 [4] was 7.5 pIC50 (M); in the assay with mouse SPNS2 [5], 7.8 pIC50 (M).

B5: 93-1310F (antibody, IgG2b, V domains shown)
VH: B4 VH with S23A, E31D, G49A, Y86F, Q117H
VL: B4 VL with E42G, M55I, S91T, N93S, K103R
Regarding B5, the Emax with human SPNS2 [1] amounted to 1.64 absorbance; with mouse SPNS2 [2], 1.61 absorbance. The pEC50 with human SPNS2 [1] is 8.56 pEC50 (M); with mouse SPNS2 [2] it was 8.29 pEC50 (M). The “FITC+/Alexa 647+ cell rate ratio” value in assay [3] was ≥ 0.5 ratio. Also, the “pIC50, S1P transport inhibition” value is 7.6 pIC50 (M) with human SPNS2 [4] and 7.9 pIC50 (M) with mouse SPNS2 [5].
